Results published in patent US20200038493.

Columns and labels:
[1] = molecular target: UbcH5b (E2 ubiquitin-conjugating enzyme), P62837
Chain of UbcH5b (E2 ubiquitin-conjugating enzyme), P62837 (P62837 whole entry, looked up): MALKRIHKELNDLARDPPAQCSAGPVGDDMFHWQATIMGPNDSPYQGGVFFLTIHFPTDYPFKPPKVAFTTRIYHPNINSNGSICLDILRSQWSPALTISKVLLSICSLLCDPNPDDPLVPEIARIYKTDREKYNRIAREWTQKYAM

Chain of GST-tagged PKN1, Q16512 (Q16512 whole entry, looked up): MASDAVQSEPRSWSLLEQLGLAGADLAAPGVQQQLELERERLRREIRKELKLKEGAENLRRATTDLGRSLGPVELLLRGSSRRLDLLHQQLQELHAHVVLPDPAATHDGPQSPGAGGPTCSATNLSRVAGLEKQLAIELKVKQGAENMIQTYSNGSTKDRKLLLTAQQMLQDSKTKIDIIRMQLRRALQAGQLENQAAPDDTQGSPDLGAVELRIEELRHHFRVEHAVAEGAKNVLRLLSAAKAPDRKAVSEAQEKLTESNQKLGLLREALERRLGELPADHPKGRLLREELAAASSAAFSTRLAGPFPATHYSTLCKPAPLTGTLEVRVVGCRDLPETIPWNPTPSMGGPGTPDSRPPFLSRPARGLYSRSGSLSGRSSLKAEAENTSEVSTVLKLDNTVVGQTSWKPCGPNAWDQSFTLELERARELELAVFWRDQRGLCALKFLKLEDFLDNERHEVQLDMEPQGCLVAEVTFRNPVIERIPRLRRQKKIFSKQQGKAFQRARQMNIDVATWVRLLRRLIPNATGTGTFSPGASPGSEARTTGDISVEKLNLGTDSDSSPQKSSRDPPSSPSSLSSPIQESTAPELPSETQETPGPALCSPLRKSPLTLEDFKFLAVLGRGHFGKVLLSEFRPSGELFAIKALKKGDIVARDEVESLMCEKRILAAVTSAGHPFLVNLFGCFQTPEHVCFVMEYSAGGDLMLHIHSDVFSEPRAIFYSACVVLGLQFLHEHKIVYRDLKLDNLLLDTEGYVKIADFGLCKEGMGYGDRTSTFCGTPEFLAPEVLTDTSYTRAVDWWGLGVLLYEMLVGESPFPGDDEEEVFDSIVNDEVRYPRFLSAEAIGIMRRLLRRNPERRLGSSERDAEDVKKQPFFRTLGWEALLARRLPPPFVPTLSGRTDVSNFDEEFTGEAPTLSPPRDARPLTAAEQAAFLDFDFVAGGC

B1: recombinant IpaH1.4 from Shigella flexneri (protein)
chain: MIKSTNIQAIGSGIMHQINNVYSLTPLSLPMELTPSCNEFYLKTWSEWEKNGTPGEQRNIAFNRLKICLQNQEAELNLSELDLKTLPDLPPQITTLEIRKNLLTHLPDLPPMLKVIHAQFNQLESLPALPETLEELNAGDNKIKELPFLPENLTHLRVHNNRLHILPLLPPELKLLVVSGNRLDSIPPFPDKLEGLALANNFIEQLPELPFSMNRAVLMNNNLTTLPESVLRLAQNAFVNVAGNPLSGHTMRTLQQITTGPDYSGPRIFFSMGNSATISAPEHSLADAVTAWFPENKQSDVSQIWHAFEHEEHANTFSAFLDRLSDTVSARNTSGFREQVAAWLEKLSASAELRQQSFAVAADATESCEDRVALTWNNLRKTLLVHQASEGLFDNDTGALLSLGREMFRLEILEDIARDKVRTLHFVDEIEVYLAFQTMLAEKLQLSTAVKEMRFYGVSGVTANDLRTAEAMVRSREENEFTDWFSLWGPWHAVLKRTEADRWAQAEEQKYEMLENEYSQRVADRLKASGLSGDADAEREAGAQVMRETEQQIYRQLTDEVLALRLSENGSNHIAHHHHHH
in vitro ubiquitination assay, anti-HA western blot [1]: have the ability to remove ubiquitin from ubiquitinated UbcH5b in order to form poly-ubiquitin chains of the HA-tagged ubiquitin

B2: recombinant IpaH2.5 from Shigella flexneri (protein)
chain: MIKSTNIQVIGSGIMHQINNIHSLTLFSLPVSLSPSCNEYYLKVWSEWEKNGTPGEQRNIAFNRLKICLQNQEAELNLSELDLKTLPDLPPQITTLEIRKNLLTHLPDLPPMLKVIHAQFNQLESLPALPETLEELNAGDNKIKELPFLPENLTHLRVHNNRLHILPLLPPELKLLVVSGNRLDSIPPFPDKLEGLALANNFIEQLPELPFSMNRAVLMNNNLTTLPESVLRLAQNAFVNVAGNPLSGHTMRTLQQITTGPDYSGPRIFFSMGNSATISAPEHSLADAVTAWFPENKQSDVSQIWHAFEHEEHANTFSAFLDRLSDTVSARNTSGFREQVAAWLEKLSASAELRQQSFAVAADATESCEDRVALTWNNLRKTLLVHQASEGLFDNDTGALLSLGREMFRLEILEDIARDKVRTLHFVDEIEVYLAFQTMLAEKLQLSTAVKEMRFYGVSGVTANDLRTAEAMVRSREENEFTDWFSLWGPWHAVLKRTEADRWAQAEEQKYEMLENEYSQRVADRLKASGLSGDADAEREAGAQVMRETEQQIYRQLTDEVLAHHHHHH
in vitro ubiquitination assay, anti-HA western blot [1]: have the ability to remove ubiquitin from ubiquitinated UbcH5b in order to form poly-ubiquitin chains of the HA-tagged ubiquitin

B3: recombinant IpaH7.8 from Shigella flexneri (protein)
chain: MFSVNNTHSSVSCSPSINSNSTSNEHYLRILTEWEKNSSPGEERGIAFNRLSQCFQNQEAVLNLSDLNLTSLPELPKHISALIVENNKLTSLPKLPAFLKELNADNNRLSVIPELPESLTTLSVRSNQLENLPVLPNHLTSLFVENNRLYNLPALPEKLKFLHVYYNRLTTLPDLPDKLEILCAQRNNLVTFPQFSDRNNIRQKEYYFHFNQITTLPESFSQLDSSYRINISGNPLSTRVLQSLQRLTSSPDYHGPQIYFSMSDGQQNTLHRPLADAVTAWFPENKQSDVSQIWHAFEHEEHANTFSAFLDRLSDTVSARNTSGFREQVAAWLEKLSASAELRQQSFAVAADATESCEDRVALTWNNLRKTLLVHQASEGLFDNDTGALLSLGREMFRLEILEDIARDKVRTLHFVDEIEVYLAFQTMLAEKLQLSTAVKEMRFYGVSGVTANDLRTAEAMVRSREENEFTDWFSLWGPWHAVLKRTEADRWAQAEEQKYEMLENEYSQRVADRLKASGLSGDADAEREAGAQVMRETEQQIYRQLTDEVLALRLSENGSRLHHSHHHHHH
in vitro ubiquitination assay, anti-HA western blot [1]: have the ability to remove ubiquitin from ubiquitinated UbcH5b in order to form poly-ubiquitin chains of the HA-tagged ubiquitin

B4: recombinant SlrP from Salmonella enterica serovar Typhimurium (protein)
chain: MFNITNIQSTARHQSISNEASTEVPLKEEIWNKISAFFSSEHQVEAQNCIAYLCHPPETASPEEIKSKFECLRMLAFPAYADNIQYSRGGADQYCILSENSQEILSIVFNTEGYTVEGGGKSVTYTRVTESEQASSASGSKDAVNYELIWSEWVKEAPAKEAANREEAVQRMRDCLKNNKTELRLKILGLTTIPAYIPEQITTLILDNNELKSLPENLQGNIKTLYANSNQLTSIPATLPDTIQEMELSINRITELPERLPSALQSLDLFHNKISCLPENLPEELRYLSVYDNSIRTLPAHLPSEITHLNVQSNSLTALPETLPPGLKTLEAGENALTSLPASLPPELQVLDVSKNQITVLPETLPPTITTLDVSRNALTNLPENLPAALQIMQASRNNLVRLPESLPHFRGEGPQPTRIIVEYNPFSERTIQNMQRLMSSVDYQGPRVLFAMGDFSIVRVTRPLHQAVQGWLTSLEEEDVNQWRAFEAEANAAAFSGFLDYLGDTQNTRHPDFKEQVSAWLMRLAEDSALRETVFIIAMNATISCEDRVTLAYHQMQEATLVHDAERGAFDSHLAELIMAGREIFRLEQIESLAREKVKRLFFIDEVEVFLGFQNQLRESLSLTTMTRDMRFYNVSGITESDLDEAEIRIKMAENRDFHKWFALWGPWHKVLERIAPEEWREMMAKRDECIETDEYQSRVNAELEDLRIADDSDAERTTEVQMDAERAIGIKIMEEINQTLFTEIMENILLKKEVSSLMSAYWRHHHHHH
in vitro ubiquitination assay, anti-HA western blot [1]: have the ability to remove ubiquitin from ubiquitinated UbcH5b in order to form poly-ubiquitin chains of the HA-tagged ubiquitin

B5: recombinant SspH1 of Salmonella enterica serovar Typhimurium with C-terminal 6x His-tag (protein)
chain: MFNIRNTQPSVSMQAIAGAAAPEASPEEIVWEKIQVFFPQENYEEAQQCLAELCHPARGMLPDHISSQFARLKALTFPAWEENIQCNRDGINQFCILDAGSKEILSITLDDAGNYTVNCQGYSEAHDFIMDTEPGEECTEFAEGASGTSLRPATTVSQKAAEYDAVWSKWERDAPAGESPGRAAVVQEMRDCLNNGNPVLNVGASGLTTLPDRLPPHITTLVIPDNNLTSLPELPEGLRELEVSGNLQLTSLPSLPQGLQKLWAYNNWLASLPTLPPGLGDLAVSNNQLTSLPEMPPALRELRVSGNNLTSLPALPSGLQKLWAYNNRLTSLPEMSPGLQELDVSHNQLTRLPQSLTGLSSAARVYLDGNPLSVRTLQALRDIIGHSGIRIHFDMAGPSVPREARALHLAVADWLTSAREGEAAQADRWQAFGLEDNAAAFSLVLDRLRETENFKKDAGFKAQISSWLTQLAEDAALRAKTFAMATEATSTCEDRVTHALHQMNNVQLVHNAEKGEYDNNLQGLVSTGREMFRLATLEQIAREKAGTLALVDDVEVYLAFQNKLKESLELTSVTSEMRFFDVSGVTVSDLQAAELQVKTAENSGFSKWILQWGPLHSVLERKVPERFNALREKQISDYEDTYRKLYDEVLKSSGLVDDTDAERTIGVSAMDSAKKEFLDGLRALVDEVLGSYLTARWRLNHHHHHH
in vitro ubiquitination assay, anti-PKN1 immunoblot (GST-tagged PKN1, Q16512): When the reaction was performed in the presence of SspH1 and PKN1 in vitro, anti-PKN1 antibodies detected an additional species migrating at a size >148 kDa | in vitro ubiquitination assay, immunoblots with anti-HA, anti-PKN1 and anti-His antibodies (GST-tagged PKN1, Q16512): recombinant SspH1 ubiquitinates PKN1 in vitro | in vitro ubiquitination assay, western blot [1]: recombinant SspH1 has the ability to remove ubiquitin from ubiquitinated UbcH5B, to autoubiquitinate, and to polyubiquitinate Ha-tagged ubiquitin

B6: recombinant IpaH4.5 from Shigella flexneri (protein)
chain: MKPINNHSFFRSLCGLSCISRLSVEEQCTRDYHRIWDDWAREGTTTENRIQAVRLLKICLDTREPVLNLSLLKLRSLPPLPLHIRELNISNNELISLPENSPLLTELHVNGNNLNILPTLPSQLIKLNISFNRNLSCLPSLPPYLQSLSARFNSLETLPELPSTLTILRIEGNRLTVLPELPHRLQELFVSGNRLQELPEFPQSLKYLKVGENQLRRLSRLPQELLALDVSNNLLTSLPENIITLPICTNVNISGNPLSTHVLQSLQRLTSSPDYHGPQIYFSMSDGQQNTLHRPLADAVTAWFPENKQSDVSQIWHAFEHEEHANTFSAFLDRLSDTVSARNTSGFREQVAAWLEKLSASAELRQQSFAVAADATESCEDRVALTWNNLRKTLLVHQASEGLFDNDTGALLSLGREMFRLEILEDIARDKVRTLHFVDEIEVYLAFQTMLAEKLQLSTAVKEMRFYGVSGVTANDLRTAEAMVRSREENEFTDWFSLWGPWHAVLKRTEADRWAQAEEQKYEMLENEYSQRVADRLKASGLSGDADAEREAGAQVMRETEQQIYRQLTDEVLAHHHHHH
in vitro ubiquitination assay, anti-HA western blot [1]: have the ability to remove ubiquitin from ubiquitinated UbcH5b in order to form poly-ubiquitin chains of the HA-tagged ubiquitin

B7: recombinant IpaH9.8 from Shigella flexneri (protein)
chain: MLPINNNFSLPQNSFYNTISGTYADYFSAWDKWEKQALPGEERDEAVSRLKECLINNSDELRLDRLNLSSLPDNLPAQITLLNVSYNQLTNLPELPVTLKKLYSASNKLSELPVLPPALESLQVQHNELENLPALPDSLLTMNISYNEIVSLPSLPQALKNLRATRNFLTELPAFSEGNNPVVREYFFDRNQISHIPESILNLRNECSIHISDNPLSSHALQALQRLTSSPDYHGPRIYFSMSDGQQNTLHRPLADAVTAWFPENKQSDVSQIWHAFEHEEHANTFSAFLDRLSDTVSARNTSGFREQVAAWLEKLSASAELRQQSFAVAADATESCEDRVALTWNNLRKTLLVHQASEGLFDNDTGALLSLGREMFRLEILEDIARDKVRTLHFVDEIEVYLAFQTMLAEKLQLSTAVKEMRFYGVSGVTANDLRTAEAMVRSREENEFTDWFSLWGPWHAVLKRTEADRWAQAEEQKYEMLENEYPQRVADRLKASGLSGDADAEREAGAQVMRETEQQIYRQLTDEVLALRLFENGSQLHHSHHHHHH
in vitro ubiquitination assay, anti-HA western blot [1]: have the ability to remove ubiquitin from ubiquitinated UbcH5b in order to form poly-ubiquitin chains of the HA-tagged ubiquitin
